Measurements as given in the supplement of paper PMC10724198.
± gives the standard deviation of the averaged measurements.

system: Saccharomyces cerevisiae; assay: protein stability index of tFT-peptide fusion (C-terminal peptide) (PSI (0-1 scale)); higher = more stable (slower turnover); settings: genetic background: wild type; temperature: 30 C
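Further: PSI is a weighted mean of sequencing reads over stability bins, variants kept only with over 10 reads, mCherry proximal and sfGFP distal, peptide attached via GGGS linker.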

Row | Sequence | protein stability index
1 | FPSFHLCNIPST | 0.757 ± 0.076
2 | DMWSMFSFLYYV | 0.507 ± 0.012
3 | CMGASRTRILTR | 0.681 ± 0.046
4 | SIRGLRTLKFLG | 0.6739 ± 0.0049
5 | WNSISGRTVVYM | 0.709 ± 0.092
6 | PLLASRFLQVGF | 0.678 ± 0.0074
7 | LPYAMPGFHSTR | 0.701 ± 0.037
8 | TRMRWCGSGVKN | 0.809 ± 0.067
9 | REEFHGLKGRGG | 0.671 ± 0.046
10 | EQSERGIQQGTN | 0.633 ± 0.02
11 | FWGQNKVCLSCQ | 0.571 ± 0.09
12 | LSSADSVVSSVV | 0.696 ± 0.0093
13 | PPAPPARFPSPP | 0.711 ± 0.068
14 | GSGTTGSLSYGV | 0.695 ± 0.02
15 | KKKNEKQNRLKN | 0.769 ± 0.029
16 | PAAFPRPTRHAA | 0.693 ± 0.067
17 | YLGTTHTGTSHR | 0.701 ± 0.019
18 | PSPRASLPRLPP | 0.597 ± 0.074
19 | PPAPRVSPPPPP | 0.712 ± 0.073
20 | LFPFIPPRLPLP | 0.687 ± 0.01
21 | NGGRCRIARVLE | 0.679 ± 0.023
22 | QLRPPHRTLHLP | 0.698 ± 0.028
23 | ISGIKNKKKKGT | 0.684 ± 0.066
24 | RRGYEVSSLSDD | 0.672 ± 0.0042
25 | WLGWIVNNSNTE | 0.753 ± 0.058
26 | PTITPPPPPPPP | 0.625 ± 0.0067

Row | Sequence | protein stability index
27 | RVLPSDSPVAPA | 0.667 ± 0.044
28 | EVWGGFGGGGGS | 0.72 ± 0.027
29 | PPLCPPLQPPLI | 0.639 ± 0.02
30 | KKKKKKKRNGAP | 0.667 ± 0.05
31 | VRRGRQHLRYGR | 0.708 ± 0.045
32 | RAVVTGEGESGG | 0.624 ± 0.0092
33 | PPYPPPRPKPPR | 0.699 ± 0.012
34 | QCAIRQCCLVSL | 0.574 ± 0.064
35 | EKRINLKKRGKT | 0.669 ± 0.064
36 | KTNIKKQSKISK | 0.778 ± 0.18
37 | HTVPTLLPPNVP | 0.665 ± 0.015
38 | QKIREKKKRKKL | 0.622 ± 0.015
39 | FTFFFNCYSRSS | 0.655 ± 0.038
40 | ICGLWVCLGHGF | 0.595 ± 0.067
41 | ISPRLGLPLAPL | 0.732 ± 0.067
42 | GFSGSPWSNPFV | 0.8663 ± 0.0025
43 | GSFPPPARARLS | 0.677 ± 0.025
44 | QGQAAHEHFHGR | 0.654 ± 0.042
45 | PPLPAPGPIFLP | 0.652 ± 0.037
46 | RPPPPLPQAPPT | 0.679 ± 0.0082
47 | FSFLFSFFFSFL | 0.55971 ± 7.1e-07
48 | WRLFFGVNLIKF | 0.622 ± 0.037
49 | PHSGVVVRCPSG | 0.704 ± 0.022
50 | RTQMLIIDKRNS | 0.6437 ± 0.0028
51 | RVVDAPPSGCRS | 0.688 ± 0.037
52 | VLFPPGFPPGLL | 0.817 ± 0.04

Row | Sequence | protein stability index
53 | ACGALAKMILFW | 0.663 ± 0.059
54 | AREGGGRAGRRE | 0.729 ± 0.021
55 | PSRLAPPSPSIP | 0.694 ± 0.051
56 | VAFPRSSTLGPY | 0.696 ± 0.027
57 | SGLFGDAVPCCV | 0.632 ± 0.03
58 | PISLFLSSSAPL | 0.729 ± 0.053
59 | GVIGGLRAGVGG | 0.719 ± 0.079
60 | VTSRSFYRVSPL | 0.68 ± 0.14
61 | QGCSRHIRTGKK | 0.5741 ± 0.0037
62 | IAWGNEISHSLF | 0.72 ± 0.066
63 | DSLSVSLSLVRG | 0.696 ± 0.028
64 | SSWWPVRRTRLG | 0.587 ± 0.022
65 | WERRRGVCGGVW | 0.707 ± 0.05
66 | RRTKKERQKSWK | 0.649 ± 0.038
67 | WSPLFPLLASST | 0.678 ± 0.016
68 | SALRALRPGSLP | 0.806 ± 0.11
69 | GGLGGGRRGVGR | 0.664 ± 0.012
70 | PKPNRAHSTTHR | 0.691 ± 0.008
71 | GYAGSRRLGLQE | 0.641 ± 0.015
72 | HSPPAGPPHTKT | 0.6694 ± 0.0039
73 | KDVYEKHLNKQT | 0.722 ± 0.1
74 | ASPFCRPNRHLL | 0.648 ± 0.031
75 | PLPPLPSTHPTL | 0.698 ± 0.035
76 | MPSRTYPSPPLG | 0.693 ± 0.03
77 | GKIEVNTRIPGG | 0.646 ± 0.078
78 | FCLGSVIWERDS | 0.625 ± 0.076

Row | Sequence | protein stability index
79 | VFVRSNSGACKN | 0.682 ± 0.027
80 | PPPPLYPQPPPT | 0.705 ± 0.025
81 | LLIFFFSSSCPL | 0.5359 ± 0.0025
82 | PERAPASRWTLS | 0.7362 ± 0.0049
83 | SPSRPQPPPLSA | 0.738 ± 0.061
84 | RQDGSPREGIRH | 0.713 ± 0.04
85 | LLNCVCSYFAWC | 0.637 ± 0.014
86 | RWGGGQRLSRGT | 0.7082 ± 0.0037
87 | NKQKKDEKNKTE | 0.73 ± 0.17
88 | PPAPPPLSPSPI | 0.832 ± 0.04
89 | CVAGSGRGGVKR | 0.6327 ± 0.0037
90 | LNWMVMLGHGAC | 0.5729 ± 0.0014
91 | LRCFLESPRQST | 0.724 ± 0.071
92 | GWGGIGDGGPVW | 0.679 ± 0.019
93 | MNLVEIIRGVRL | 0.7063 ± 0.0051
94 | IVSNLILSKRCN | 0.652 ± 0.064
95 | LKNFGRGAMVRT | 0.688 ± 0.013
96 | VVPSRCCQRLRK | 0.716 ± 0.035
97 | SVSVFLMGLRGT | 0.694 ± 0.015
98 | PGGQGVRTDRPQ | 0.678 ± 0.025
99 | PPPPAAFFPRSP | 0.827 ± 0.11
100 | PTYRGAPCLPPF | 0.728 ± 0.013
101 | LILHVGWDSQLG | 0.667 ± 0.085
102 | GMRGGGGWCRGW | 0.671 ± 0.043
103 | GKRKKERGGGER | 0.711 ± 0.093
104 | TQYMRVVQAKPD | 0.659 ± 0.055

Row | Sequence | protein stability index
105 | TLPSPPSPSPRP | 0.679 ± 0.085
106 | SPPYPPPPVAST | 0.707 ± 0.013
107 | SVTPSPPPSRPF | 0.678 ± 0.057
108 | NSTLSSNATRVK | 0.727 ± 0.015
109 | LDVFSLASRPDG | 0.5928 ± 0.0053
110 | RGCGKGPLLSWF | 0.717 ± 0.0093
111 | RFLLSITSSLVL | 0.666 ± 0.043
112 | GKNKKSKTLIKQ | 0.669 ± 0.029
113 | VIVKNINKNTQI | 0.717 ± 0.038
114 | KEQNKKQKAKDL | 0.719 ± 0.1
115 | IDYETIQKYKVE | 0.633 ± 0.011
116 | VSVGGVWGQCVA | 0.6618 ± 0.0047
117 | YMTWRGCGWSGG | 0.697 ± 0.1
118 | RGLGCEVGTVEV | 0.768 ± 0.0077
119 | VLGVGSFCLGVV | 0.622 ± 0.018
120 | SPQFLLPRALSP | 0.695 ± 0.0042
121 | PLSLSVPPAFFI | 0.538 ± 0.14
122 | PPPHPTPPLTSP | 0.702 ± 0.058
123 | LSPPFLLTSPLT | 0.703 ± 0.046
124 | LPAFHFHSPPTP | 0.688 ± 0.037
125 | FRVHSFRLSCLS | 0.574 ± 0.022
126 | SRLPPHSPVHAS | 0.787 ± 0.042
127 | STYIMTFTSWEP | 0.68 ± 0.0078
128 | GGHSVRCGGGAL | 0.758 ± 0.037
129 | EGTSYWDPSVPG | 0.741 ± 0.045
130 | TVPNLTPALPPL | 0.525 ± 0.11

Row | Sequence | protein stability index
131 | ESLLFICAHALV | 0.566 ± 0.017
132 | GRRHNPRTSSAQ | 0.756 ± 0.075
133 | TEEVRVRVQTEL | 0.663 ± 0.035
134 | FSPLARMGSGTL | 0.701 ± 0.0073
135 | CVTLPPHPLPPP | 0.6623 ± 0.0058
136 | RGGVFGTCGVGG | 0.653 ± 0.035
137 | PESRAESAKPRD | 0.667 ± 0.019
138 | CWSRLADSFVSL | 0.683 ± 0.05
139 | VGYGEVSGGGRM | 0.732 ± 0.026
140 | IDQTSKRCKRAC | 0.672 ± 0.018
141 | VVRRHKRVLMRF | 0.659 ± 0.015
142 | FLFHAIGTCRLC | 0.671 ± 0.015
143 | TFSHRVICTGND | 0.733 ± 0.072
144 | GGAGEAWGGLRW | 0.767 ± 0.025
145 | YFFRLLYRLWSR | 0.676 ± 0.092
146 | SPPRPPRPRYLF | 0.6947 ± 0.0062
147 | SGVGLAETAGDD | 0.68 ± 0.027
148 | YVWVPCIRSVLV | 0.491 ± 0.018
149 | RKRTIVCRPGRV | 0.698 ± 0.021
150 | FYPRPTVPPHGL | 0.585 ± 0.024
151 | PSPPPPPRSFLH | 0.649 ± 0.066
152 | PPPPPPPAPPLP | 0.648 ± 0.044
153 | PLQFSLADEFST | 0.705 ± 0.02
154 | LRESPPHLPFPP | 0.701 ± 0.039
155 | GIISLTPRGCTR | 0.92 ± 0.11
156 | AFCVSVLVGLGG | 0.487 ± 0.052

Row | Sequence | protein stability index
157 | RDDDSKDKRTEI | 0.684 ± 0.065
158 | ASPSSAAQPLSP | 0.641 ± 0.099
159 | PPPRLPSRPPPP | 0.716 ± 0.032
160 | PPPYPFPHLSPL | 0.713 ± 0.029
161 | LLTAFQACPASN | 0.713 ± 0.04
162 | KVRAGLGIRITQ | 0.674 ± 0.021
163 | ARLGKASYSVFS | 0.729 ± 0.027
164 | LLPLPSFSPCSL | 0.7013 ± 0.0034
165 | AGRRVPVMMYGS | 0.691 ± 0.022
166 | PWVGRFVRLGVR | 0.676 ± 0.058
167 | YINILKLVMNQD | 0.736 ± 0.052
168 | PLPPDPPCPPPP | 0.651 ± 0.072
169 | VCVAACVGAHFA | 0.656 ± 0.083
170 | GATLGRQEPGHS | 0.671 ± 0.056
171 | FFSSSDRQLSNQ | 0.716 ± 0.041
172 | NYIIRKTKERHK | 0.781 ± 0.11
173 | GDLASASAWGVR | 0.681 ± 0.026
174 | RGGGVRYGVARR | 0.68 ± 0.059
175 | ITSSPNVGKTTN | 0.713 ± 0.024
176 | RSRTSKGGNFII | 0.6766 ± 0.0053
177 | GDGWPTRSGGTG | 0.701 ± 0.01
178 | PFPAPPPPPPPP | 0.678 ± 0.064
179 | EGLVRVCSRHYR | 0.67 ± 0.0083
180 | PPLPLPPSRSPA | 0.686 ± 0.026
181 | PHPLPSPSPPPH | 0.69228 ± 0.00045
182 | RSRLPPPPLLFP | 0.702 ± 0.048

Row | Sequence | protein stability index
183 | QCVSGLGPVVRT | 0.7329 ± 0.0029
184 | VSLVDRFVLAIV | 0.5619 ± 0.0011
185 | GGGGGSMDLRDR | 0.697 ± 0.0076
186 | GGCFGGVGGGSG | 0.707 ± 0.034
187 | LIGMCEAGCSPF | 0.727 ± 0.012
188 | YPDPLSVSPPPA | 0.682 ± 0.097
189 | AVVVDWLAQVLH | 0.757 ± 0.068
190 | SYVLIYAPLSSL | 0.661 ± 0.036
191 | PGPPTPPPPLYP | 0.706 ± 0.012
192 | SFGSPLFFFPFL | 0.736 ± 0.036
193 | RSGGVRCNDVRR | 0.675 ± 0.05
194 | PPRQPFPPILPS | 0.677 ± 0.046
195 | PPPRTFSSSFHV | 0.6366 ± 0.0043
196 | GVVALFLYLLVL | 0.494 ± 0.02
197 | VAESGRGAGGDF | 0.7314 ± 0.0029
198 | RCGPPTAPSLDP | 0.619 ± 0.008
199 | PRRSNPQPTHIR | 0.708 ± 0.038
200 | QRVWGFRSVFVR | 0.532 ± 0.035
201 | FWGRYIGRDRGT | 0.62 ± 0.12
202 | GGPVDGSVDRGR | 0.627 ± 0.017
